Experimental data published in PMC5430663, “Distant Phe345 mutation compromises the stability and activity of Mycobacterium tuberculosis isocitrate lyase by modulating its structural flexibility” (Scientific Reports, 2017).
Substitutions are numbered along the chain they refer to. Names may count otherwise.

B1: Mycobacterium tuberculosis isocitrate lyase (MtbICL) (enzyme)
chain: MSVVGTPKSAEQIQQEWDTNPRWKDVTRTYSAEDVVALQGSVVEEHTLARRGAEVLWEQLHDLEWVNALGALTGNMAVQQVRAGLKAIYLSGWQVAGDANLSGHTYPDQSLYPANSVPQVVRRINNALQRADQIAKIEGDTSVENWLAPIVADGEAGFGGALNVYELQKALIAAGVAGSHWEDQLASEKKCGHLGGKVLIPTQQHIRTLTSARLAADVADVPTVVIARTDAEAATLITSDVDERDQPFITGERTREGFYRTKNGIEPCIARAKAYAPFADLIWMETGTPDLEAARQFSEAVKAEYPDQMLAYNCSPSFNWKKHLDDATIAKFQKELAAMGFKFQFITLAGFHALNYSMFDLAYGYAQNQMSAYVELQEREFAAEERGYTATKHQREVGAGYFDRIATTVDPNSSTTALTGSTEEGQFH
notes: Isocitrate lyase of Mycobacterium tuberculosis, full-length, 428 amino acids per monomer; also called native MtbICL; native protein
B2: MtbICL F345A mutant (MtbICL_(F345A)) (enzyme)
chain: B1 chain with F345A
notes: A small fraction formed aggregate on SEC; also called mutant protein

Biological target: the molecule itself
Test: SEC; Superdex 200 10/300 GL on AKTA-FPLC, 50 mM phosphate buffer pH 8.0, 100 mM NaCl, 0.5 mL/min, 25 °C; mass read against standard markers (ferritin, catalase, aldolase, ovalbumin)

Row | Protein | stoichiometry N
1 | B1 | 4
2 | B2 | 4
